# T1: Canine parvovirus (CPV) capsid (Canine parvovirus type 2 (CPV-2), …)
# T1 chain: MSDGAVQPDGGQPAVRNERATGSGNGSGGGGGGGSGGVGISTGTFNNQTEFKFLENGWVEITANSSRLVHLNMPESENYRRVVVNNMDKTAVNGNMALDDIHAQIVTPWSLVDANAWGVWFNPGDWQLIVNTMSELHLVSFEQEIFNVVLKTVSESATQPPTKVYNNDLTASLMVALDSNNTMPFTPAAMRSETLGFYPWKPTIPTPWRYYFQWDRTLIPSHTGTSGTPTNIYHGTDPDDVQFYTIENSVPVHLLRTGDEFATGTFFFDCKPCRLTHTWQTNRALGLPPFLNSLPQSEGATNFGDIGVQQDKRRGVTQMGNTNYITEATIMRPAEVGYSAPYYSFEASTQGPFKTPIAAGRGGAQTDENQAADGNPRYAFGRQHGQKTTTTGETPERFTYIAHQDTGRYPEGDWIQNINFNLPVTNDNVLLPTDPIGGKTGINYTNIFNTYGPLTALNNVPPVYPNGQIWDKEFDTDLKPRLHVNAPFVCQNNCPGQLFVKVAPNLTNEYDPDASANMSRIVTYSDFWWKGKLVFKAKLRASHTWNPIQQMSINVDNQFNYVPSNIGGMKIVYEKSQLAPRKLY
# Molecular target: T1, Canine parvovirus (CPV) capsid
# Experiment: cryo-EM structure
binder,measurement,value
"Fab of MAb 14 (Fab 14) (Fab, V domains shown) VH: AVHLQGTELVKPGASAGVKLSCKASGYTFTNYDMNWVRQRPEQGLEWIGWIFPGDGSTRYNEKFKGKATLTTDKSSSTAYQLNRLTSEDSAVYFCARRGSHGSYSFAYWGQGTLVTVSG VL: DIVMTQSHKFMSTSVGDRVSITCKASQDVNTALAWYQQIPGQSPKLLIYSASNRYTGVPDRFTASGSGTDFTFTISSVQAEDLALYYCQQHYTTPWTFGGGTKLEIK",stoichiometry N,~60 Fab per capsid

# Reference: article PMC8201801 (Proceedings of the National Academy of Sciences of the …, 2021)
